Like-named read-outs stand apart in the source and are kept apart here.
What was measured:
Experiment in all cases: two-hybrid library CCNG1;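 note: natural log of median RNA to DNA barcode read ratio; higher means stronger binding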
4H568-bH = biological target: T1, 4H568-bH
T1 chain: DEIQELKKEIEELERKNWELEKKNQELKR

4H607-bH = biological target: T2, 4H607-bH
T2 chain: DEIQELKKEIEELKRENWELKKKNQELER

4H953-bH = biological target: T3, 4H953-bH
T3 chain: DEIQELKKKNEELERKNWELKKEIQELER

4H906-bN = biological target: T4, 4H906-bN
T4 chain: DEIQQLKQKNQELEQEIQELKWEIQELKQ

4H687-bH = biological target: T5, 4H687-bH
T5 chain: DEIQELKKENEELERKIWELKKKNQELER

4H918-bH = biological target: T6, 4H918-bH
T6 chain: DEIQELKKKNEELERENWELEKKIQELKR

4H72-bH = biological target: T7, 4H72-bH
T7 chain: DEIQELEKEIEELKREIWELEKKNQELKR

4H797-bH = biological target: T8, 4H797-bH
T8 chain: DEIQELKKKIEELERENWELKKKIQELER

4H967-bH = biological target: T9, 4H967-bH
T9 chain: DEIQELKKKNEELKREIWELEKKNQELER

4H883-bH = biological target: T10, 4H883-bH
T10 chain: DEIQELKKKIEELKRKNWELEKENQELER

4H462-bH = biological target: T11, 4H462-bH
T11 chain: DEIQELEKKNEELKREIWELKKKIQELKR

O9-bN = biological target: T12, O9-bN
T12 chain: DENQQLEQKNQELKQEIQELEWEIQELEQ

O8-bN = biological target: T13, O8-bN
T13 chain: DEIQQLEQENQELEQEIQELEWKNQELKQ

What does the source list for DEIQELEKKNEELKREIWELKKKIQELKR [4H462-bH]?
interaction score (4H568-bH): 0.229; interaction score (4H607-bH): -0.483; interaction score (4H953-bH): -0.0754; interaction score (4H906-bN): -2.48; interaction score (4H687-bH): 1.31; interaction score (4H918-bH): 0.264; interaction score (4H72-bH): 0.335; interaction score (4H797-bH): -0.33; interaction score (4H967-bH): -0.847; interaction score (4H883-bH): -0.231; interaction score (4H462-bH): 0.452

For DENQQLEQKNQELKQEIQELEWEIQELEQ [O9-bN], which interaction score (O9-bN; mean of both orientations) is on record?
Its interaction score is -1.9.

With DEIQQLEQENQELEQEIQELEWKNQELKQ [O8-bN] as the binder, how does the interaction score (O8-bN) read?
The interaction score was 0.371.

What about the interaction score (O9-bN) of the same binder?
The interaction score was -0.872.
